In patent US20190119318A1:
Values joined by “and” are separate entries in the source; they are usually repeats but may differ in a detail not shown here. Identical values can stand only once.

Experiments:
[1] = target: human polyclonal IgG (Gammanorm) (human); experiment: column DBC; base A65a; ligand 13.1 mg/ml
[2] = target: human polyclonal IgG (Gammanorm) (human); experiment: column DBC; base I1; ligand 11.2 mg/ml
[3] = target: human polyclonal IgG (Gammanorm) (human); experiment: column DBC; base B5; ligand 9.6 mg/ml
[4] = target: human polyclonal IgG (Gammanorm) (human); experiment: column DBC; base A40; ligand 13.2 mg/ml
[5] = target: human polyclonal IgG (Gammanorm) (human); experiment: column DBC; ligand 20 mg/ml; before incubation in 1 M NaOH
[6] = target: human polyclonal IgG (Gammanorm) (human); experiment: column DBC; base A62a; ligand 6.6 mg/ml
[7] = target: human polyclonal IgG (Gammanorm) (human); experiment: column DBC; base C2; ligand 10.5 mg/ml
[8] = target: human polyclonal IgG (Gammanorm) (human); experiment: column DBC; base A62b; ligand […]; details: ligand content 5.2 mg/ml
[9] = target: human polyclonal IgG (Gammanorm) (human); experiment: column DBC; base H40; ligand 9.1 mg/ml
[10] = target: human polyclonal IgG (Gammanorm) (human); experiment: column DBC; base A40; ligand 6.1 mg/ml
[11] = target: human polyclonal IgG (Gammanorm) (human); experiment: column DBC; base A65b; ligand 8.8 mg/ml
[12] = target: human polyclonal IgG (Gammanorm) (human); experiment: column DBC; base A20; ligand 10.6 mg/ml
[13] = target: human polyclonal IgG (Gammanorm) (human); experiment: column DBC; base A38; ligand 11.3 mg/ml
[14] = target: human polyclonal IgG (Gammanorm) (human); experiment: column DBC; base A27; ligand 7.5 mg/ml
[15] = target: human polyclonal IgG (Gammanorm) (human); experiment: column DBC; base C3; ligand 9.0 mg/ml
[16] = target: human polyclonal IgG (Gammanorm) (human); experiment: column DBC; base A65a; ligand 13.6 mg/ml
[17] = target: human polyclonal IgG (Gammanorm) (human); experiment: column DBC; base A63a; ligand 6.1 mg/ml
[18] = target: human polyclonal IgG (Gammanorm) (human); experiment: column DBC; base C1; ligand 10.8 mg/ml
[19] = target: human polyclonal IgG (Gammanorm) (human); experiment: column DBC; base A63a; ligand 6.6 mg/ml
[20] = target: human polyclonal IgG (Gammanorm) (human); experiment: column DBC; base A62a; ligand 9.7 mg/ml
[21] = target: human polyclonal IgG (Gammanorm) (human); experiment: column DBC; base A20; ligand 7.3 mg/ml
[22] = target: human polyclonal IgG (Gammanorm) (human); experiment: column DBC; base A20; ligand […]
[23] = target: human polyclonal IgG (Gammanorm) (human); experiment: column DBC; base A41; ligand 5.0 mg/ml
[24] = target: human polyclonal IgG (Gammanorm) (human); experiment: column DBC; base I1; ligand 6.1 mg/ml
[25] = target: human polyclonal IgG (Gammanorm) (human); experiment: SPR; after 100 CIP cycles 1 M NaOH
[26] = target: human polyclonal IgG (Gammanorm) (human); experiment: column DBC; base A28; ligand 15.8 mg/ml
[27] = target: human polyclonal IgG (Gammanorm) (human); experiment: column DBC; base A40; ligand 11.03 mg/ml
[28] = target: human polyclonal IgG (Gammanorm) (human); experiment: column DBC; base C1; ligand […]
[29] = target: human polyclonal IgG (Gammanorm) (human); experiment: SPR; after 100 CIP cycles 0.5 M NaOH
[30] = target: human polyclonal IgG (Gammanorm) (human); experiment: column DBC; base A33; ligand 7.33 mg/ml
[31] = target: human polyclonal IgG (Gammanorm) (human); experiment: column DBC; base B5; ligand 6.3 mg/ml
[32] = target: human polyclonal IgG (Gammanorm) (human); experiment: SPR; after 300 CIP cycles 0.5 M NaOH
[33] = target: human polyclonal IgG (Gammanorm) (human); experiment: column DBC; base A40; ligand 13.15 mg/ml
[34] = target: human polyclonal IgG (Gammanorm) (human); experiment: column DBC; base A28; ligand 7.9 mg/ml
[35] = target: human polyclonal IgG (Gammanorm) (human); experiment: column DBC; base A43; ligand 6.99 mg/ml
[36] = target: human polyclonal IgG (Gammanorm) (human); experiment: column DBC; base A41; ligand 8.83 mg/ml
[37] = target: human polyclonal IgG (Gammanorm) (human); experiment: column DBC; base A65b; ligand […]
[38] = target: human polyclonal IgG (Gammanorm) (human); experiment: column DBC; base A42; ligand 6.72 mg/ml
[39] = target: human polyclonal IgG (Gammanorm) (human); experiment: column DBC; base A39; ligand 7.0 mg/ml
[40] = target: human polyclonal IgG (Gammanorm) (human); experiment: column DBC; base A38; ligand 7.45 mg/ml

Zvar(Q9A,N11E,Q40V,A42K,N43A,L44I)4 (designed binder)
Qb10% 2.4 min [1]: 56 mg/mL | Qb10% 6 min [1]: 64 mg/mL | Qb10% 2.4 min [2]: 57 mg/mL | Qb10% 6 min [2]: 68 mg/mL | Qb10% 2.4 min [3]: 45 mg/mL | Qb10% 6 min [3]: 47 mg/mL | Qb10% 2.4 min [4]: 57 mg/mL | Qb10% 6 min [4]: 71 mg/mL | Qb10%, 6 min, before incubation [5]: 73 mg/mL | Qb10% 2.4 min [6]: 41 mg/mL | Qb10% 6 min [6]: 46 mg/mL | Qb10% 2.4 min [7]: 42 mg/mL | Qb10% 6 min [7]: 57 mg/mL | Qb10% 2.4 min [8]: 40 mg/mL | Qb10% 2.4 min [9]: 52 mg/mL | Qb10% 6 min [9]: 67 mg/mL | Qb10% 2.4 min [10]: 49 mg/mL | Qb10% 6 min [10]: 59 mg/mL | Qb10% 2.4 min [11]: 49 mg/mL | Qb10% 6 min [11]: 56 mg/mL | Qb10% 2.4 min [12]: 50.7 mg/mL and 51 mg/mL | Qb10% 6 min [12]: 70.1 mg/mL and 70 mg/mL | Qb10% 2.4 min [13]: 48 mg/mL | Qb10% 6 min [13]: 73 mg/mL | Qb10% 2.4 min [14]: 29.2 mg/mL | Qb10% 6 min [14]: 48.7 mg/mL | Qb10% 2.4 min [15]: 49 mg/mL | Qb10% 6 min [15]: 62 mg/mL | Qb10% 2.4 min [16]: 52 mg/mL | Qb10% 6 min [16]: 61 mg/mL | Qb10% 2.4 min [17]: 39 mg/mL | Qb10% 6 min [17]: 44 mg/mL | Qb10% 2.4 min [18]: 43 mg/mL | Qb10% 6 min [18]: 60 mg/mL | Qb10% 2.4 min [19]: 40 mg/mL | Qb10% 6 min [19]: 44 mg/mL | Qb10% 2.4 min [20]: 48 mg/mL | Qb10% 6 min [20]: 60 mg/mL | Qb10% 2.4 min [21]: 45.1 mg/mL and 45 mg/mL | Qb10% 6 min [21]: 57.2 mg/mL and 57 mg/mL | Qb10% 2.4 min [22]: 49 mg/mL | Qb10% 6 min [22]: 67 mg/mL | Qb10% 2.4 min [23]: 35.6 mg/mL | Qb10% 6 min [23]: 46 mg/mL | Qb10% 2.4 min [24]: 45 mg/mL | Qb10% 6 min [24]: 51 mg/mL | remaining capacity 100 cycles [25]: 56% | Qb10% 2.4 min [26]: 37 mg/mL | Qb10% 6 min [26]: 67 mg/mL | Qb10% 2.4 min [27]: 55 mg/mL | Qb10% 6 min [27]: 73.8 mg/mL | Qb10% 2.4 min [28]: 38 mg/mL | Qb10% 6 min [28]: 47 mg/mL | remaining capacity 100 cycles [29]: 90% | Qb10% 2.4 min [30]: 48.7 mg/mL | Qb10% 6 min [30]: 55.8 mg/mL | Qb10% 2.4 min [31]: 32 mg/mL | Qb10% 6 min [31]: 38 mg/mL | remaining capacity 300 cycles [32]: 57% | Qb10% 2.4 min [33]: 56.9 mg/mL | Qb10% 6 min [33]: 71.1 mg/mL | Qb10% 2.4 min [34]: 42.4 mg/mL and 42 mg/mL | Qb10% 6 min [34]: 58.2 mg/mL and 58 mg/mL | Qb10% 2.4 min [35]: 33.4 mg/mL | Qb10% 6 min [35]: 49.8 mg/mL | Qb10% 2.4 min [36]: 38.5 mg/mL and 37.8 mg/mL and 35.1 mg/mL | Qb10% 6 min [36]: 56.8 mg/mL and 58.6 mg/mL and 57.2 mg/mL | Qb10% 2.4 min [37]: 42 mg/mL | Qb10% 6 min [37]: 46 mg/mL | Qb10% 2.4 min [38]: 33.6 mg/mL | Qb10% 6 min [38]: 50 mg/mL | Qb10% 2.4 min [39]: 42 mg/mL | Qb10% 6 min [39]: 55 mg/mL | Qb10% 2.4 min [40]: 44.4 mg/mL | Qb10% 6 min [40]: 58.2 mg/mL
